Laboratory results reported in ChEMBL document CHEMBL2074236, “Renal organic cation and nucleoside transport” (Biochem Pharmacol, 2002).

B1: Solute carrier family 22 member 1 (Rattus norvegicus) (protein)
chain: MPTVDDVLEQVGEFGWFQKQAFLLLCLISASLAPIYVGIVFLGFTPGHYCQNPGVAELSQRCGWSQAEELNYTVPGLGPSDEASFLSQCMRYEVDWNQSTLDCVDPLSSLVANRSQLPLGPCEHGWVYDTPGSSIVTEFNLVCGDAWKVDLFQSCVNLGFFLGSLVVGYIADRFGRKLCLLVTTLVTSVSGVLTAVAPDYTSMLLFRLLQGMVSKGSWVSGYTLITEFVGSGYRRTTAILYQMAFTVGLVGLAGVAYAIPDWRWLQLAVSLPTFLFLLYYWFVPESPRWLLSQKRTTRAVRIMEQIAQKNGKVPPADLKMLCLEEDASEKRSPSFADLFRTPNLRKHTVILMYLWFSCAVLYQGLIMHVGATGANLYLDFFYSSLVEFPAAFIILVTIDRIGRIYPIAASNLVTGAACLLMIFIPHELHWLNVTLACLGRMGATIVLQMVCLVNAELYPTFIRNLGMMVCSALCDLGGIFTPFMVFRLMEVWQALPLILFGVLGLTAGAMTLLLPETKGVALPETIEEAENLGRRKSKAKENTIYLQVQTGKSSST
B2: Solute carrier family 22 member 2 (Rattus norvegicus) (protein)
chain: MSTVDDILEHIGEFHLFQKQTFFLLALLSGAFTPIYVGIVFLGFTPDHHCWSPGAAKLSQRCGWSQAEELNYTVPGLGPSDEASFLSQCMRYEVDWNQSTLDCVDPLSSLAADRNQLPLGPCEHGWVYNTPGSSIVTEFNLVCAHSWMLDLFQSVVNVGFFIGAMMIGYLADRFGRKFCLLVTILINAISGALMAISPNYAWMLVFRFLQGLVSKAGWLIGYILITEFVGLGYRRMVGICYQIAFTVGLLILAGVAYVIPNWRWLQFAVTLPNFCFLLYFWCIPESPRWLISQNKIVKAMKIIKHIAKKNGKSVPVSLQNLTPDEDAGKKLNPSFLDLVRTPQIRKHTLILMYNWFTSSVLYQGLIMHMGLAGDNIYLDFFYSALVEFPAAFIIILTIDRVGRRYPWAVSNMVAGAACLASVFIPDDLQWLKITIACLGRMGITMAYEMVCLVNAELYPTYIRNLGVLVCSSMCDIGGIITPFLVYRLTDIWMEFPLVVFAVVGLVAGALVLLLPETKGKALPETIEDAENMQRPRKKKEKRIYLQVKQADRPLS

Substrate: Nc1ncnc2c1ccn2[C@H]1C[C@H](O)[C@@H](CO)O1
Test: TP_TRANSPORTER: uptake (pH 5.4) in Xenopus laevis oocytes
Format: functional, cell-based, Oocyte

Protein | Km [µM]
B1 | 23
B2 | 212
